Assay: Transmission electron microscopy of assemblies
Type: physicochemical
Conditions: 7 μL aliquots on carbon-coated copper grids, stained with 1% uranyl acetate

## HEWL: fibrils from hen egg white lysozyme, positive control for ThT and TEM
  average diameter of assemblies by TEM: 38 nm

Reference: publication PMC7074877 (ACS chemical neuroscience, 2018)
